# Experimental data published in US20230302083A1, “HIGHLY-NETWORKED C[…] COMPOSITION” (priority 2020, published 2023).
# Target: HLA-A*0301 (human)
row,Binder,HLA-A*0301 stabilization relative to HIV RK9 [%]
1,RVIHFGAGSDK (modifications not checked),> 50
2,VMCGGSLYVK (modifications not checked),> 50
3,KGIYQTSNFR (modifications not checked),> 50
4,GNYQCGHYK (modifications not checked),> 50
